Substitutions are numbered along the chain they refer to.
Experiments:
[1] = target: T1, LexA (Salmonella) (Salmonella enterica serotype Agona strain 47SA97) (UniProt B5F1Q6); assay: EMSA; details: EMSA: 40 ng DNA probe, 0-600 ng LexA, binding buffer E (composition not stated; Thermo E33075 EMSA kit), 10 uL, 20 min on ice; 6% native Tris-glycine PAGE …
T1 sequence: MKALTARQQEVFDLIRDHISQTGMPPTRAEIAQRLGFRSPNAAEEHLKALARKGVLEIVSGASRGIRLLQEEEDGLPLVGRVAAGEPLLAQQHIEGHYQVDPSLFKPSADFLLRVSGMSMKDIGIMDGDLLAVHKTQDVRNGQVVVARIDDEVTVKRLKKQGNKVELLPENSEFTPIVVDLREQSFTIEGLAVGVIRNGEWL

[2] = target: T2, LexA (E. coli) (Escherichia coli MG1655) (UniProt P0A7C2); assay: EMSA; details: EMSA: 40 ng DNA probe, 0-600 ng LexA, binding buffer E (composition not stated; Thermo E33075 EMSA kit), 10 uL, 20 min on ice; 6% native Tris-glycine PAGE …
T2 sequence: T1 sequence with L56I, D74E, S108N, T175K, E183Q, E200D

Row | Sequence | binding [1] | binding [2]
1 | ACACACCTGATTTATTCACTGATTAACTTTGTCATCAATCATAAATACCATGACTTTTTGATAATGCAACGCCAAATACTGTGTTTTTTTACAGTATCATTTTATGGTGCTATGAAGATTTGCATTTCTGAACGATAATCTATAATCGGTTACATATTAATCAGGAGGCGT (double strand) [PsgaDC probe] | binds | binds
2 | AGTTGTTCCGCAGTAGCCATTATTCAATCTCCATAAGACGGGGCAACTTTACCAATTTTATACAATAAAGTCTGTGTAGTATGACAGGGTTTAAGCACTTAATCCCCTCTAGAATTTTGTACACTCACCACCCCTACATGATTATAAATAGTCGTTCTAGATACACCATATCGCCTAGCAACA (double strand) [PsgiAT probe] | no binding | no binding
3 | ACACACCTGATTTATTCACTGATTAACTTTGTCATCAATCATAAATACCATGACTTTTTGATAATGCAACGCCAAATAAGTTGTTTTTTTACAGTATCATTTTATGGTGCTATGAAGATTTGCATTTCTGAACGATAATCTATAATCGGTTACATATTAATCAGGAGGCGT (double strand) [PsgaDC* probe] | no binding | no binding
